Laboratory results as given in paper PMC4242096 (Nature structural & molecular biology, 2013).
Non-standard residues stand in square brackets, D forms with d. No end group written: not given here. pY = N[C@@H](Cc1ccc(OP(=O)(O)O)cc1)C(=O)O; pT = C[C@@H](OP(=O)(O)O)[C@H](N)C(=O)O; pS = N[C@@H](COP(=O)(O)O)C(=O)O

B1: S. cerevisiae Cks (Cks1), wild type (natural protein, UniProt P20486 1-150, looked up)
chain: MYHHYHAFQGRKLTDQERARVLEFQDSIHYSPRYSDDNYEYRHVMLPKAMLKVIPSDYFNSEVGTLRILTEDEWRGLGITQSLGWEHYECHAPEPHILLFKRPLNYEAELRAATAAAQQQQQQQQQQQQQQQQHQTQSISNDMQVPPQIS

Columns and labels:
S. cerevisiae Cks (Cks1) = molecular target: T1, S. cerevisiae Cks (Cks1) (Saccharomyces cerevisiae, UniProt P20486); assay: Isothermal titration calorimetry; assay type: binding; conditions: ITC; for Cks1 Kd (µM): phosphorylated Cdk substrate peptides, value ± error as printed
T1 sequence (P20486 1-150): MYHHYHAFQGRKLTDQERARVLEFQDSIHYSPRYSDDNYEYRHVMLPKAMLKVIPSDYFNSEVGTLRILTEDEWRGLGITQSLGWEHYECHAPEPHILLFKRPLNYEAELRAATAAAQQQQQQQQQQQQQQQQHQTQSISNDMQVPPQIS

[1] = molecular target: phosSic1ΔC ΔC (Saccharomyces cerevisiae) (UniProt P38634); conditions: cited from earlier work
[2] = molecular target: phosSic1 N-terminus N-terminus (Saccharomyces cerevisiae) (UniProt P38634); conditions: cited from earlier work
phosphorylated Cdc6^1–48 = phosphorylated Cdc6^1–48 (UniProt P09119); assay: ITC
[3] = molecular target: T2, Cdc6^(1–48;T23A T39A S43A), only T7 phosphorylated (UniProt P09119 1-48, T23A | T39A | S43A, only T7 phosphorylated); assay: ITC
T2 chain (looked up): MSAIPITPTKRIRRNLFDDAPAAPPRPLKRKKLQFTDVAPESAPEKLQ

[4] = molecular target: T3, Cdc6^(1–48;T7A T39A S43A), only T23 phosphorylated (UniProt P09119 1-48, T7A | T39A | S43A, only T23 phosphorylated); assay: ITC
T3 chain (looked up): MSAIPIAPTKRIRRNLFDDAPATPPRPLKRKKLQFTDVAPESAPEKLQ

[5] = molecular target: B1; assay: ITC

Sequence of phosSic1ΔC ΔC (Saccharomyces cerevisiae) (P38634 1-215, stated change not applied): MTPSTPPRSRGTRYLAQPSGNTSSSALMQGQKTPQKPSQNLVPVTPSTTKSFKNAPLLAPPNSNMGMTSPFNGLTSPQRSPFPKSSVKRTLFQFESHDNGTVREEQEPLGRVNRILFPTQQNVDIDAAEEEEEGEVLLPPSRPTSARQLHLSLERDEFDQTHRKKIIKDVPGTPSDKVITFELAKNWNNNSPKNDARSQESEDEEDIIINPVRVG
Sequence of phosSic1 N-terminus N-terminus (Saccharomyces cerevisiae) (P38634 1-100): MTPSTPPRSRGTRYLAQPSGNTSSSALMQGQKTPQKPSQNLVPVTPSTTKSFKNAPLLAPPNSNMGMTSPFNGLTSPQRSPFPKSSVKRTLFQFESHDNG

| Molecule | Kd [5] [µM] | further results |
| --- | --- | --- |
| SAIPI[pY]PTK [phosCdc6^2–10; pT7pY] |  | Cks1 Kd (µM) (S. cerevisiae Cks (Cks1)): no heat |
| phosCdc6^1–48: purified N-terminal domain of Cdc6 (residues 1–48) phosphorylated with recombinant Cdk (MSAIPI[pT]PTKRIRRNLFDDAPA[pT]PPRPLKRKKLQFTDV[pT]PES[pS]PEKLQ) |  | stoichiometry parameter n (Cks1 molecules per Cdc6 molecule) (S. cerevisiae Cks (Cks1); data fit to a one site model): ≈ 2 |
| Cks1 (from UniProt P20486) |  | Kd [1]: 20 µM; Kd [2]: 11 µM |
| SAIPI[pS]PTK [phosCdc6^2–10; pT7pS] |  | Cks1 Kd (µM) (S. cerevisiae Cks (Cks1)): no heat |
| S. cerevisiae Cks (Cks1), wild type (from UniProt P20486 1-150) (natural protein) |  | Kd (phosphorylated Cdc6^1–48): 9.8 µM; stoichiometry N (phosphorylated Cdc6^1–48): 2 |
| B1 |  | stoichiometry N [3]: ~1; stoichiometry N [4]: ~1 |
| AIPI[pT]P [phosCdc6^3–8] | 81 ± 6 |  |
| AIPI[pT]PT [phosCdc6^3–9] | 61 ± 9 |  |
| TPS[pT]PTRS [phosSic1^(2–9; P7T)] | 70 ± 20 |  |
| TPS[pT]PKRS [phosSic1^(2–9; P7K)] | 120 ± 20 |  |
| TYS[pT]PPRS [phosSic1^(2–9; P3Y)] | 90 ± 50 |  |
| TPS[pT]PPRS [phosSic1^2–9] | 95 ± 8 |  |
| EEIS[pT]PTR [phosSwe1^369–376] | 160 ± 70 |  |
| SAIPI[pT]PTK [phosCdc6^2–10] | 130 ± 60 |  |
| SAIPI[pT]P [phosCdc6^2–8] | 62 ± 2 |  |
| ESVT[pT]PIT [phosSwe1^117–124] | 170 ± 90 |  |
| RIPE[pT]PVK [phosSwe1^192–199] | 60 ± 10 |  |
